In patent publication US12018327B2, “Methods and compositions relating to epoxide hydrolase genes” (The Regents of the University of California, priority 2018, dated 2024):

T1: PPARγ (Homo sapiens, UniProt P37231)
T1 sequence (P37231 1-505): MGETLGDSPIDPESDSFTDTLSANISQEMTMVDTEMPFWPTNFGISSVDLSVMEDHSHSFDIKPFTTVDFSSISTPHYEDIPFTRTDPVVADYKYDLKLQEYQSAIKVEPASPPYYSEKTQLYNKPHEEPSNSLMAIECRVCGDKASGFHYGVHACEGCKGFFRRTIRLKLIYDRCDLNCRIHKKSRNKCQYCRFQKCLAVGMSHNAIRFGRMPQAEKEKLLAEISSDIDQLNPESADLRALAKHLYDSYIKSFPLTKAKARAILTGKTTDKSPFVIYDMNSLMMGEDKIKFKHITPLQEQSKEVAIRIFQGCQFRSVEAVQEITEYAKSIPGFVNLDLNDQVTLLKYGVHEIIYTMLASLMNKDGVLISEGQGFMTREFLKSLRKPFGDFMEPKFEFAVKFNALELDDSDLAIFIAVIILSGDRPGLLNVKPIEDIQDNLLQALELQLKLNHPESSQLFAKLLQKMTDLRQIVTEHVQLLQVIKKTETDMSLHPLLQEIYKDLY


Tests used:
PPARγ = target: T1, PPARγ; conditions: ref [19]; cited from earlier work
[1] = Colorimetric detection of EH activity, 12,13 EpOME; type: biochemical; conditions: gene expressed in E. coli BL21

Molecule	action on PPARγ (PPARγ)	conversion of 12,13 EpOME into 12,13 DiHOME [1]
CCCCC/C=C\CC(O)C(O)CCCCCCCC(=O)O (stereo not shown) [9,10 DiHOME]	known agonist	
YP_003971091: Bifidobacterium bifidum PRL2010 hydrolase (epoxide hydrolase) encoded by Gene 2, expressed in E. coli (protein) MSQHQVTTRQRRNVVLLDLDGTLTQSDPGIIACATKAFEELSLPVPDDQEMHRFIGPAIIESFRRNHMPDELLDRGVEIYREYYADKAVFDDPNNPGHKIPGRLYNSVYAGIPEQLAALRADGLHLAIATCKPQYQAEPVCEHFHLDTMVDGIYGASTDNSRIDKDQVIRYCFDSIGFDADAGDRALMVGDRWTDVDGAIACGLDCLGCRWGYAEAGELEEHGAYRIIDTVDELAAAVNDYFAK		could convert
YP_003971333: Bifidobacterium bifidum PRL2010 hydrolase (epoxide hydrolase) encoded by Gene 3, expressed in E. coli (protein) MASDDIMTAGAGGATATVRADIKAAFFDIDGTLTSFVTHVIPQSSIDALHELQDRGVKVFICSGRAPSHMTVVLDMMPVHFDGIIALNGQYCFDDHGLLEKESLLPEDIVTITRWLDEHPDVVANYCEKDYVYFNQITDAMRATWRQLGKTAPTVNIDDPHERALKHETFQISPYISFEDEAKLSGMCRNVRGVRWHPDFTDLIPADGGKPEGMKRFMRHYGWTREQTIAFGDGGNDADMLAFAGIGVAMGNATEPAKAAADYITDDVDHDGIMNALKHFNVL		could convert
NP_814872: Enterococcus faecalis epoxide hydrolase (HAD superfamily hydrolase) encoded by Gene 1, expressed in E. coli (protein) MSIKLVAIDIDGTLLNSQHKITPRVKEALQKANEQGVRIVLCTGRPLPGVKEQLDELALYGENDFVITYNGSLVQATKDNTIISRYTLSYEDFLEIEMYSRKVGAHLHTIDDSAIYTANRNIGKYTIHEASLVNMPLKYRTVDEMTPEMNIIKMMMIDEPEVLDPAIAKLPLHFTEKYTTVKSTPFYYEIMNKNASKGNALAKLADHLGLNKDEVMAIGDNENDLSMIDYAGIGVAMGNATENVKTIADVHTTSNDEDGVAQIIEKMVLI		could convert
